# Data: publication PMC12102759 (2025)
# B1: MXI1 peptide 6-21 (Max-interacting protein 1), 16-mer library wild type / SIN3A PAH2 (SIN3A PAH domain, residues 295-383) (parent complex)
# chain 1: MINVQRLLEAAEFLER
# chain 2: SLQNNQPVEFNHAINYVNKIKNRFQGQPDIYKAFLEILHTYQKEQRNAKEAGGNYTPALTEQEVYAQVARLFKNQEDLLSEFGQFLPDA
# B2: RNF115 peptide 69-84 (E3 ubiquitin-protein ligase RNF115), 16-mer library wild type / MDM2 SWIB (MDM2 SWIB/MDM2 domain, residues 17-125) (parent complex)
# chain 1: THFAELWGHLDHTMFF
# chain 2: SQIPASEQETLVRPKPLLLKLLKSVGAQKDTYTMKEVLFYLGQYIMTKRLYDEKQQHIVYCSNDLLGDLFGVPSFSVKEHRKIYTMIYRNLVVVNQQESSDSGTSVSEN
# Variants of: B1
# Test: proteomic peptide phage display deep mutational scan (ProP-PD DMS): M13 P8 16-mer library selected against immobilised GST-tagged bait for four days (rounds), NGS of the eluted pools per day and pseudo-replica; bait immobilised on MaxiSorp plates (10 µg), library pre-cleared on GST, 2 h binding at 4 °C, five washes; one round per day, days 1-4; value from days 2 and 3
row,Variant,screen value
1,chain 1 N3Y,"0.000298 average fractional NGS count over selection days 2 and 3 (reads of this peptide / all reads for the bait, averaged over …"
2,chain 1 E15D,"0.000913 average fractional NGS count over selection days 2 and 3 (reads of this peptide / all reads for the bait, averaged over …"
3,chain 1 I2N,"0.00111 average fractional NGS count over selection days 2 and 3 (reads of this peptide / all reads for the bait, averaged over …"
4,chain 1 M1V,"0.000344 average fractional NGS count over selection days 2 and 3 (reads of this peptide / all reads for the bait, averaged over …"
5,chain 1 M1G,"0.000229 average fractional NGS count over selection days 2 and 3 (reads of this peptide / all reads for the bait, averaged over …"
6,chain 1 L8I,"0.00287 average fractional NGS count over selection days 2 and 3 (reads of this peptide / all reads for the bait, averaged over …"
7,chain 1 E9N,"0.0151 average fractional NGS count over selection days 2 and 3 (reads of this peptide / all reads for the bait, averaged over …"
8,chain 1 L14G,"0.000436 average fractional NGS count over selection days 2 and 3 (reads of this peptide / all reads for the bait, averaged over …"
9,chain 1 L14P,"0.0014 average fractional NGS count over selection days 2 and 3 (reads of this peptide / all reads for the bait, averaged over …"
10,chain 1 R6H,"0.00034 average fractional NGS count over selection days 2 and 3 (reads of this peptide / all reads for the bait, averaged over …"

# Variants of: B2
# Test: as above
row,Variant,screen value
1,chain 1 T13N,"0.00271 average fractional NGS count over selection days 2 and 3 (reads of this peptide / all reads for the bait, averaged over …"
2,chain 1 T13L,"0.00319 average fractional NGS count over selection days 2 and 3 (reads of this peptide / all reads for the bait, averaged over …"
3,chain 1 T13I,"0.00105 average fractional NGS count over selection days 2 and 3 (reads of this peptide / all reads for the bait, averaged over …"
4,chain 1 T13S,"0.0255 average fractional NGS count over selection days 2 and 3 (reads of this peptide / all reads for the bait, averaged over …"
5,chain 1 T13K,"0.000352 average fractional NGS count over selection days 2 and 3 (reads of this peptide / all reads for the bait, averaged over …"
6,chain 1 T1S,"0.00105 average fractional NGS count over selection days 2 and 3 (reads of this peptide / all reads for the bait, averaged over …"
7,chain 1 T1L,"0.000174 average fractional NGS count over selection days 2 and 3 (reads of this peptide / all reads for the bait, averaged over …"
8,chain 1 T1P,"0.00338 average fractional NGS count over selection days 2 and 3 (reads of this peptide / all reads for the bait, averaged over …"
9,chain 1 T1Q,"0.00081 average fractional NGS count over selection days 2 and 3 (reads of this peptide / all reads for the bait, averaged over …"
10,chain 1 T1I,"0.000116 average fractional NGS count over selection days 2 and 3 (reads of this peptide / all reads for the bait, averaged over …"
11,chain 1 T1A,"0.00514 average fractional NGS count over selection days 2 and 3 (reads of this peptide / all reads for the bait, averaged over …"
12,chain 1 T1N,"0.000471 average fractional NGS count over selection days 2 and 3 (reads of this peptide / all reads for the bait, averaged over …"
13,chain 1 F15P,"0.00458 average fractional NGS count over selection days 2 and 3 (reads of this peptide / all reads for the bait, averaged over …"
14,chain 1 F15T,"0.00702 average fractional NGS count over selection days 2 and 3 (reads of this peptide / all reads for the bait, averaged over …"
15,chain 1 F15V,"0.0496 average fractional NGS count over selection days 2 and 3 (reads of this peptide / all reads for the bait, averaged over …"
16,chain 1 F15I,"0.00139 average fractional NGS count over selection days 2 and 3 (reads of this peptide / all reads for the bait, averaged over …"
17,chain 1 F15G,"0.00105 average fractional NGS count over selection days 2 and 3 (reads of this peptide / all reads for the bait, averaged over …"
18,chain 1 F15L,"0.0296 average fractional NGS count over selection days 2 and 3 (reads of this peptide / all reads for the bait, averaged over …"
19,chain 1 F15A,"0.0214 average fractional NGS count over selection days 2 and 3 (reads of this peptide / all reads for the bait, averaged over …"
20,chain 1 F15N,"0.000153 average fractional NGS count over selection days 2 and 3 (reads of this peptide / all reads for the bait, averaged over …"
21,chain 1 D11I,"0.000389 average fractional NGS count over selection days 2 and 3 (reads of this peptide / all reads for the bait, averaged over …"
22,chain 1 D11N,"0.00248 average fractional NGS count over selection days 2 and 3 (reads of this peptide / all reads for the bait, averaged over …"

row,Variant,screen value
1,chain 1 D11R,"0.000139 average fractional NGS count over selection days 2 and 3 (reads of this peptide / all reads for the bait, averaged over …"
2,chain 1 D11K,"0.000112 average fractional NGS count over selection days 2 and 3 (reads of this peptide / all reads for the bait, averaged over …"
3,chain 1 D11F,"8.75e-05 average fractional NGS count over selection days 2 and 3 (reads of this peptide / all reads for the bait, averaged over …"
4,chain 1 D11G,"0.000731 average fractional NGS count over selection days 2 and 3 (reads of this peptide / all reads for the bait, averaged over …"
5,chain 1 H2K,"0.000959 average fractional NGS count over selection days 2 and 3 (reads of this peptide / all reads for the bait, averaged over …"
6,chain 1 H2L,"0.00441 average fractional NGS count over selection days 2 and 3 (reads of this peptide / all reads for the bait, averaged over …"
7,chain 1 H2P,"0.00101 average fractional NGS count over selection days 2 and 3 (reads of this peptide / all reads for the bait, averaged over …"
8,chain 1 H2T,"0.00209 average fractional NGS count over selection days 2 and 3 (reads of this peptide / all reads for the bait, averaged over …"
9,chain 1 H2Y,"0.000608 average fractional NGS count over selection days 2 and 3 (reads of this peptide / all reads for the bait, averaged over …"
10,chain 1 H12K,"0.00015 average fractional NGS count over selection days 2 and 3 (reads of this peptide / all reads for the bait, averaged over …"
11,chain 1 H12I,"0.000167 average fractional NGS count over selection days 2 and 3 (reads of this peptide / all reads for the bait, averaged over …"
12,chain 1 H12A,"0.00464 average fractional NGS count over selection days 2 and 3 (reads of this peptide / all reads for the bait, averaged over …"
13,chain 1 H9M,"0.00238 average fractional NGS count over selection days 2 and 3 (reads of this peptide / all reads for the bait, averaged over …"
14,chain 1 H9D,"0.0019 average fractional NGS count over selection days 2 and 3 (reads of this peptide / all reads for the bait, averaged over …"
15,chain 1 H9S,"0.00629 average fractional NGS count over selection days 2 and 3 (reads of this peptide / all reads for the bait, averaged over …"
16,chain 1 H9Q,"0.00185 average fractional NGS count over selection days 2 and 3 (reads of this peptide / all reads for the bait, averaged over …"
17,chain 1 H9Y,"0.000619 average fractional NGS count over selection days 2 and 3 (reads of this peptide / all reads for the bait, averaged over …"
18,chain 1 H9E,"0.00208 average fractional NGS count over selection days 2 and 3 (reads of this peptide / all reads for the bait, averaged over …"
19,chain 1 H9W,"0.000883 average fractional NGS count over selection days 2 and 3 (reads of this peptide / all reads for the bait, averaged over …"
20,chain 1 A4Q,"0.000494 average fractional NGS count over selection days 2 and 3 (reads of this peptide / all reads for the bait, averaged over …"
21,chain 1 A4L,"0.000327 average fractional NGS count over selection days 2 and 3 (reads of this peptide / all reads for the bait, averaged over …"
22,chain 1 A4N,"0.000396 average fractional NGS count over selection days 2 and 3 (reads of this peptide / all reads for the bait, averaged over …"

row,Variant,screen value
1,chain 1 A4G,"0.000193 average fractional NGS count over selection days 2 and 3 (reads of this peptide / all reads for the bait, averaged over …"
2,chain 1 A4Y,"0.000442 average fractional NGS count over selection days 2 and 3 (reads of this peptide / all reads for the bait, averaged over …"
3,chain 1 A4I,"0.000788 average fractional NGS count over selection days 2 and 3 (reads of this peptide / all reads for the bait, averaged over …"
4,chain 1 A4H,"0.00203 average fractional NGS count over selection days 2 and 3 (reads of this peptide / all reads for the bait, averaged over …"
5,chain 1 A4D,"0.000369 average fractional NGS count over selection days 2 and 3 (reads of this peptide / all reads for the bait, averaged over …"
6,chain 1 E5Q,"0.00197 average fractional NGS count over selection days 2 and 3 (reads of this peptide / all reads for the bait, averaged over …"
7,chain 1 G8E,"0.00632 average fractional NGS count over selection days 2 and 3 (reads of this peptide / all reads for the bait, averaged over …"
8,chain 1 G8K,"0.000179 average fractional NGS count over selection days 2 and 3 (reads of this peptide / all reads for the bait, averaged over …"
9,chain 1 G8Q,"0.0015 average fractional NGS count over selection days 2 and 3 (reads of this peptide / all reads for the bait, averaged over …"
10,chain 1 G8S,"0.0101 average fractional NGS count over selection days 2 and 3 (reads of this peptide / all reads for the bait, averaged over …"
11,chain 1 M14V,"0.00137 average fractional NGS count over selection days 2 and 3 (reads of this peptide / all reads for the bait, averaged over …"
12,chain 1 M14A,"0.00114 average fractional NGS count over selection days 2 and 3 (reads of this peptide / all reads for the bait, averaged over …"
13,chain 1 M14T,"0.00238 average fractional NGS count over selection days 2 and 3 (reads of this peptide / all reads for the bait, averaged over …"
14,chain 1 M14S,"0.00183 average fractional NGS count over selection days 2 and 3 (reads of this peptide / all reads for the bait, averaged over …"
15,chain 1 M14L,"0.000799 average fractional NGS count over selection days 2 and 3 (reads of this peptide / all reads for the bait, averaged over …"
16,chain 1 M14G,"0.000223 average fractional NGS count over selection days 2 and 3 (reads of this peptide / all reads for the bait, averaged over …"
17,chain 1 L6I,"0.000313 average fractional NGS count over selection days 2 and 3 (reads of this peptide / all reads for the bait, averaged over …"
18,chain 1 L6H,"0.00174 average fractional NGS count over selection days 2 and 3 (reads of this peptide / all reads for the bait, averaged over …"
19,chain 1 L6Q,"0.000157 average fractional NGS count over selection days 2 and 3 (reads of this peptide / all reads for the bait, averaged over …"
20,chain 1 L6W,"0.000846 average fractional NGS count over selection days 2 and 3 (reads of this peptide / all reads for the bait, averaged over …"
21,chain 1 L6Y,"0.00417 average fractional NGS count over selection days 2 and 3 (reads of this peptide / all reads for the bait, averaged over …"
